Consider ten molecules from US20040248211A1, “ICAM-related protein” (priority 1992, published 2004).

First the molecules themselves.
B1: haFL: HA-tagged full length ICAM-R expressed in J77.50.3 cells (protein, UniProt P32942 1-547, looked up)
chain: MATMVPSVLWPRACWTLLVCCLLTPGVQGQEFLLRVEPQNPVLSAGGSLFVNCSTDCPSSEKIALETSLSKELVASGMGWAAFNLSNVTGNSRILCSVYCNGSQITGSSNITVYRLPERVELAPLPPWQPVGQNFTLRCQVEDGSPRTSLTVVLLRWEEELSRQPAVEEPAEVTATVLASRDDHGAPFSCRTELDMQPQGLGLFVNTSAPRQLRTFVLPVTPPRLVAPRFLEVETSWPVDCTLDGLFPASEAQVYLALGDQMLNATVMNHGDTLTATATATARADQEGAREIVCNVTLGGERREARENLTVFSFLGPIVNLSEPTAHEGSTVTVSCMAGARVQVTLDGVPAAAPGQPAQLQLNATESDDGRSFFCSATLEVDGEFLHRNSSVQLRVLYGPKIDRATCPQHLKWKDKTRHVLQCQARGNPYPELRCLKEGSSREVPVGIPFFVNVTHNGTYQCQASSSRGKYTLVVVMDIEAGSSHFVPVFVAVLLTLGVVTIVLALMYVFREHQRSGSYHVREESTYLPLTSMQPTEAMGEEPSRAE
modifications: full-length HA tag
notes: HA-tagged full length ICAM-R expressed in J77.50.3 cells
B2: Tyr479Phe: ICAM-R cytoplasmic domain point mutant (protein, UniProt P32942 30-547, looked up, variant Y479F)
Intercellular adhesion …: QEFLLRVEPQNPVLSAGGSLFVNCSTDCPSSEKIALETSLSKELVASGMGWAAFNLSNVTGNSRILCSVYCNGSQITGSSNITVYRLPERVELAPLPPWQPVGQNFTLRCQVEDGSPRTSLTVVLLRWEEELSRQPAVEEPAEVTATVLASRDDHGAPFSCRTELDMQPQGLGLFVNTSAPRQLRTFVLPVTPPRLVAPRFLEVETSWPVDCTLDGLFPASEAQVYLALGDQMLNATVMNHGDTLTATATATARADQEGAREIVCNVTLGGERREARENLTVFSFLGPIVNLSEPTAHEGSTVTVSCMAGARVQVTLDGVPAAAPGQPAQLQLNATESDDGRSFFCSATLEVDGEFLHRNSSVQLRVLYGPKIDRATCPQHLKWKDKTRHVLQCQARGNPYPELRCLKEGSSREVPVGIPFFVNVTHNGTYQCQASSSRGKYTLVVVMDIEAGSSHFVPVFVAVLLTLGVVTIVLALMFVFREHQRSGSYHVREESTYLPLTSMQPTEAMGEEPSRAE
B3: Ser487Ala: ICAM-R cytoplasmic domain point mutant (protein, UniProt P32942 30-547, looked up, variant S487A)
Intercellular adhesion …: B2 Intercellular adhesion … with F479Y, S487A
B4: Ser515Ala: ICAM-R cytoplasmic domain point mutant (protein, UniProt P32942 30-547, looked up, variant S515A)
Intercellular adhesion …: B2 Intercellular adhesion … with F479Y, S515A
B5: Leu499Ala: ICAM-R cytoplasmic domain point mutant (protein, UniProt P32942 30-547, looked up, variant L499A)
Intercellular adhesion …: B2 Intercellular adhesion … with F479Y, L499A
B6: Tyr490Phe: ICAM-R cytoplasmic domain point mutant (protein, UniProt P32942 30-547, looked up, variant Y490F)
Intercellular adhesion …: B2 Intercellular adhesion … with F479Y, Y490F
B7: Ser496Ala: ICAM-R cytoplasmic domain point mutant (protein, UniProt P32942 30-547, looked up, variant S496A)
Intercellular adhesion …: B2 Intercellular adhesion … with F479Y, S496A
B8: Tyr498Phe: ICAM-R cytoplasmic domain point mutant (protein, UniProt P32942 30-547, looked up, variant Y498F)
Intercellular adhesion …: B2 Intercellular adhesion … with F479Y, Y498F
B9: Ser503Ala: ICAM-R cytoplasmic domain point mutant (protein, UniProt P32942 30-547, looked up, variant S503A)
Intercellular adhesion …: B2 Intercellular adhesion … with F479Y, S503A
B10: Ser489Ala: ICAM-R cytoplasmic domain point mutant (protein, UniProt P32942 30-547, looked up, variant S489A)
Intercellular adhesion …: B2 Intercellular adhesion … with F479Y, S489A

Where a chain is given by its changes, count along the chain named.

One experiment relates to J77.50.3 cells. The experiment in a line: IL-2 induction in J77.50.3 lines expressing ICAM-R variants. It counts as cell-based, human. The conditions noted are these: repeated experiments; Vector 0.52. The procedure: This dose of antibody alone provides minimal signalling for IL-2 release. The OKT3 treatment was removed and replaced with buffer alone or anti-ICAM-R (ICR-1.1) (10 ug/ml in PBS-D) and incubated at 37° C. for at least 2 hours. Monoclonal antibody coating was done in replicates of two or more wells and pooled to provide sufficient quantities of conditioned media for ELISA and/or bioassay. Two hundred fifty thousand Jurkat cells or transfectants thereof, were placed into antibody coated wells or buffer coated negative control wells in 0.1 ml of RPMI complete medium. Following incubation of about 16-24 hrs at 37° C. in a humidified atmosphere containing 5% CO2, the medium was transferred to a fresh 96 well round bottom plate, spun to pellet cells carried over and transferred to a fresh plate. Samples were frozen and stored at −70° C. IL-2 ELISAs were performed using commercially available kits (Biosource Intl. Co., Carmarille, Calif.) by making serial dilutions of the samples.
Experiments were performed using two independently isolated cell lines for each plasmid construct or the vector alone. Stable lines expressing similar levels of ICAM-R variants, as determined by indirect flow cytometry, were chosen for functional studies. Cells were costimulated with plate immobilized monoclonal antibodies ICR-1.1 and OKT3, and IL-2 release from the lines was quantitated by ELISA as previously described in Example 25C. Results were expressed as fold increase of IL-2 released from cells plated onto co-immobilized ICR-1.1 (10 μg/ml) plus OKt3 (1 μg/ml) divided by release from OKT3 ([…]) alone. The full length ICAM-R protein (haFL) gave 3.1 fold induction. The deletions gave the following fold inductions: haCTΔ505 induction was 1.5 fold, haCTΔ493 induction was 1.3 fold, haCTΔ484 was 0.8 fold. Vector control induction was 0.7 fold. […] In addition, removal of the residues 505-518 leads to the most significant reduction in co-stimulatory responsiveness. This implies that residues 505-518 play a relatively larger role in the response as compared to residues 484-505.
As for B1, the “IL-2 Induction (Fold Stimulation)” value stood at 5.4 Fold.

For B2, the “IL-2 Induction (Fold Stimulation)” value turned out to be 4.9 Fold.

As to B3, the “IL-2 Induction (Fold Stimulation)” value is reported as 2.0 Fold.

As for B4, the “IL-2 Induction (Fold Stimulation)” value is on record as 2.1 Fold.

B5: the “IL-2 Induction (Fold Stimulation)” value is recorded as “˜6 Fold”.

Turning to B6, the “IL-2 Induction (Fold Stimulation)” value is 1.8 Fold.

Consider B7, for which the “IL-2 Induction (Fold Stimulation)” value is reported as “˜6 Fold”.

Regarding B8, the “IL-2 Induction (Fold Stimulation)” value was determined as 1.6 Fold.

Consider B9, for which the “IL-2 Induction (Fold Stimulation)” value was 1.0 Fold.

As to B10, the “IL-2 Induction (Fold Stimulation)” value is 2.9 Fold.

The experiment is the same for the next values; noted with them: vector control 0.7 fold.
Turning to B1, the “fold increase of IL-2 released (ICR-1.1 plus OKT3 divided by OKT3 alone)” value is recorded as 3.1 fold.

As for B5, the “fold increase of IL-2 released (ICR-1.1 plus OKT3 divided by OKT3 alone)” value is given as “Neither ICAM-R mutation affected IL-2 secretion”.

As to B7, the “fold increase of IL-2 released (ICR-1.1 plus OKT3 divided by OKT3 alone)” value is “Neither ICAM-R mutation affected IL-2 secretion”.

The next experiment deals with J77.50.3 cell lines. In words: Cell spreading on ICR-1.1 coated plastic. It counts as cell-based, human. The settings on record: 20 minutes at 37° C. As for the experimental part: To ascertain additional functional consequences of ICAM-R carboxyl terminal deletions, the Jurkat cell lines expressing the. ICAM-R variants described above were tested for the ability to adhere and spread on antibody coated plastic or to undergo antibody-mediated aggregation. Bacterial petri plates were coated with 50 μl drops of ICR-1.1 or w6/32 (10 μg/ml) (anti-MHC class I isotype matched control monoclonal antibody) in PBS for 120 minutes at 37° C. The plastic was rinsed twice prior to spotting 50 μl drops of J77.50.3 cell lines. Duplicate cell lines expressing these proteins at equivalent levels were tested. After 20 minutes at 37° C. the plate was flooded with 2% glutaraldehyde in PBS and incubated for 30 minutes to fix adherent cells. Fixed cells were rinsed twice with PBS and scored visually for the ability to flatten and spread. […] Weyrich et al., J. Clin. Invest., 95: 2297-2303 (1995) recently described the effect of a ICR-1.1 coated plastic surface on normal monocytes from peripheral blood. After two hours, these cells flattened down and spread with a similar overall morphology to that seen with the haFL expressing J77.50.3 cell line.
As for B1, the “spreading on ICR-1.1 coated plastic” value is listed as “spread onto the ICR-1.1 coated plastic surface”.

With B2, the “spreading on ICR-1.1 coated plastic” value is recorded as “spread onto the ICR-1.1 coated plastic surface”.

With B5, the “spreading on ICR-1.1 coated plastic” value is “Neither ICAM-R mutation affected”.

With B6, the “spreading on ICR-1.1 coated plastic” value is listed as “incapable of flattening down onto the ICR-1.1 coated surface”.

Take B7: the “spreading on ICR-1.1 coated plastic” value was “Neither ICAM-R mutation affected”.

In the case of B8, the “spreading on ICR-1.1 coated plastic” value is “spread onto the ICR-1.1 coated plastic surface”.

A further experiment relates to J77.50.3 cell lines. The experiment in a line: ICR-1.1 induced aggregation of J77.50.3 lines. Format: cell-based, human. The conditions noted are these: ICR-1.1 10 μg/ml; 1 and 24 hours. As for the experimental part:
One of these monoclonal antibodies (ICR-1.1) was used to induce aggregation of the J77.50.3 cell lines expressing either full length ICAM-R (haFL) or carboxy terminal variants of ICAM-R. ICR-1.1 was added to 200,000 cells at 10 μg/ml in 96 well plates and incubated 37° C. At 1 and 24 hours after incubation the wells were visually screened for aggregates.
For the molecule B1, the ICR-1.1 induced aggregation result is given as “aggregation competent”.

Consider B2, for which the ICR-1.1 induced aggregation entry was “aggregation competent”.

With B5, the ICR-1.1 induced aggregation entry was “Neither ICAM-R mutation affected”.

Consider B6, for which the ICR-1.1 induced aggregation entry was “incapable of forming inducible aggregates”.

For the molecule B7, the ICR-1.1 induced aggregation entry was “Neither ICAM-R mutation affected”.

B8: the ICR-1.1 induced aggregation entry is “aggregation competent”.

Still in this experiment, the particulars now being: repeated experiments; Vector 17.
Turning to B1, the “Percent Aggregation” value is listed as 55%.

With B3, the “Percent Aggregation” value is on record as 61%.

As to B4, the “Percent Aggregation” value was found to be 15%.

For B5, the “Percent Aggregation” value worked out at 60%.

On to B7, for which the “Percent Aggregation” value is recorded as 60%.

Turning to B9, the “Percent Aggregation” value stood at 64%.

Consider B10, for which the “Percent Aggregation” value was found to be 25%.
